{"source": "paper PMC8298264", "about": "“Function of cofactor Akirin2 in the regulation of gene expression in model human neutrophil-like HL60 cells” (Bioscience Reports, 2021)", "molecules": {"B1": {"name": "sp¦B0I1T2¦MYO1G_HUMAN (protein, UniProt B0I1T2 1-1018, looked up)", "Unconventional myosin-Ig": "MEDEEGPEYGKPDFVLLDQVTMEDFMRNLQLRFEKGRIYTYIGEVLVSVNPYQELPLYGPEAIARYQGRELYERPPHLYAVANAAYKAMKHRSRDTCIVISGESGAGKTEASKHIMQYIAAVTNPSQRAEVERVKDVLLKSTCVLEAFGNARTNRNHNSSRFGKYMDINFDFKGDPIGGHIHSYLLEKSRVLKQHVGERNFHAFYQLLRGSEDKQLHELHLERNPAVYNFTHQGAGLNMTVHSALDSDEQSHQAVTEAMRVIGFSPEEVESVHRILAAILHLGNIEFVETEEGGLQKEGLAVAEEALVDHVAELTATPRDLVLRSLLARTVASGGRELIEKGHTAAEASYARDACAKAVYQRLFEWVVNRINSVMEPRGRDPRRDGKDTVIGVLDIYGFEVFPVNSFEQFCINYCNEKLQQLFIQLILKQEQEEYEREGITWQSVEYFNNATIVDLVERPHRGILAVLDEACSSAGTITDRIFLQTLDMHHRHHLHYTSRQLCPTDKTMEFGRDFRIKHYAGDVTYSVEGFIDKNRDFLFQDFKRLLYNSTDPTLRAMWPDGQQDITEVTKRPLTAGTLFKNSMVALVENLASKEPFYVRCIKPNEDKVAGKLDENHCRHQVAYLGLLENVRVRRAGFASRQPYSRFLLRYKMTCEYTWPNHLLGSDKAAVSALLEQHGLQGDVAFGHSKLFIRSPRTLVTLEQSRARLIPIIVLLLQKAWRGTLARWRCRRLRAIYTIMRWFRRHKVRAHLAELQRRFQAARQPPLYGRDLVWPLPPAVLQPFQDTCHALFCRWRARQLVKNIPPSDMPQIKAKVAAMGALQGLRQDWGCRRAWARDYLSSATDNPTASSLFAQRLKTLQDKDGFGAVLFSSHVRKVNRFHKIRNRALLLTDQHLYKLDPDRQYRVMRAVPLEAVTGLSVTSGGDQLVVLHARGQDDLVVCLHRSRPPLDNRVGELVGVLAAHCQGEGRTLEVRVSDCIPLSHRGVRRLISVEPRPEQPEPDFRCARGSFTLLWPSR"}, "B2": {"name": "sp¦P13995¦MTDC_HUMAN (protein, UniProt P13995 36-350, looked up)", "Bifunctional …": "EAVVISGRKLAQQIKQEVRQEVEEWVASGNKRPHLSVILVGENPASHSYVLNKTRAAAVVGINSETIMKPASISEEELLNLINKLNNDDNVDGLLVQLPLPEHIDERRICNAVSPDKDVDGFHVINVGRMCLDQYSMLPATPWGVWEIIKRTGIPTLGKNVVVAGRSKNVGMPIAMLLHTDGAHERPGGDATVTISHRYTPKEQLKKHTILADIVISAAGIPNLITADMIKEGAAVIDVGINRVHDPVTAKPKLVGDVDFEGVRQKAGYITPVPGGVGPMTVAMLMKNTIIAAKKVLRLEEREVLKSKELGVATN"}, "B3": {"name": "sp¦Q86Y56¦DAAF5_HUMAN (protein, UniProt Q86Y56 2-855, looked up)", "Dynein axonemal assembly …": "AALGVAEAVAAPHPAEGAETAEAVELSRALSRLLPGLEADSKPGRRRALEALRRALEEPGPAADPTAFQGPWARLLLPRLLRCLSDPAEGCRALAVHLLDLGLRRAARPRDALPRLLPALAARLAGPVPARRPPEACEELRLALVQLLGLAVDLCGAALAPHLDDALRALRCSLLDPFAAVRRESCSCAAALAQATPDHFHMQSESLIGPLMQTISHQHWKVRVAAIEATGAVIHFGNGKSVDDVLSHFAQRLFDDVPQVRRAVASVVGGWLLCLRDRYSFFHKLIPLLLSSLNDEVPEVRQLAASLWEDVGLQWQKENEEDLKDKLDFAPPTPPHYPPHERRPVLGCRELVFRNLSKILPALCHDITDWVVGTRVKSAQLLPVLLLHAEDHATQHLEVVLRTLFQACTDEEAAVVQSCTRSAELVGTFVSPEVFLKLILSTLKKTPSASGLLVLASAMRGCPREALQPHLAAIATELAQAHICQASENDLYLERLLLCVQALVSVCHEDCGVASLQLLDVLLTIVALAGATGLRDKAQETMDSLAMVEGVSSCQDLYRKHIGPLLERVTASHLDWTAHSPELLQFSVIVAQSGPALGEALPHVVPTLRACLQPSQDPQMRLKLFSILSTVLLRATDTINSQGQFPSYLETVTKDILAPNLQWHAGRTAAAIRTAAVSCLWALTSSEVLSAEQIRDVQETLMPQVLTTLEEDSKMTRLISCRIINTFLKTSGGMTDPEKLIRIYPELLKRLDDVSNDVRMAAASTLVTWLQCVKGANAKSYYQSSVQYLYRELLVHLDDPERAIQDAILEVLKEGSGLFPDLLVRETEAVIHKHRSATYCEQLLQHVQAVPATQ"}}}
{"system": "human HL60 cells", "assay": "SWATH-MS proteomics, differential protein representation, akirin2 KO vs WT HL60 cells", "format": "cell-based", "details": "akirin2 KO vs WT HL60 cells; sheet \"Under-represented in KO\"", "method_in_brief": "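WT and akirin2 KO HL60 lysates (150 µg, n=3 biological replicates) were FASP trypsin-digested and desalted. A spectral library was built by IDA from 3 µg digests, then 5 µg per sample went to variable-window SWATH DIA over a 120-min 5–30% acetonitrile gradient. Identifications were accepted at 1% global FDR, with total-area-sum normalization.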"}
{"molecule": "B1", "Fold Change": 0.6785, "Log (Fold Change)": -0.1685}
{"molecule": "B2", "Fold Change": 0.682, "Log (Fold Change)": -0.1662}
{"molecule": "B3", "Fold Change": 0.3018, "Log (Fold Change)": -0.5202}
